Molecular target: S. lophii 70 S ribosome (Spraguea lophii (endogenous in spores))
Assay: cryo-EM structure

percent of particles in the monomeric class: 1.6%
stoichiometry N: 2
Substance: S. lophii 70 S ribosome (complex)
